The target in this assay is T1, Human chorionic gonadotropin (human, UniProt P01215 25-116; P0DN86 21-165).
T1 construct: glycoprotein hormones alpha chain of human chorionic gonadotropin; beta subunit of human chorionic gonadotropin; Glycoprotein hormone; also called hCG; source: bought: Sigma-Aldrich
Briefly: other fluorescence titration; 50 nM FITC-peptide first adsorbed on graphene oxide (2 ug/mL, 10 min, fluorescence quenched); protein added, 15 min at room temperature, PBS 20 mM pH 7.2; recovery of fluorescence (excitation 470 nm, emission 518 nm) on release of the peptide from GO. Particulars: both partners purified.

Ends that are not written are not given here. * marks the point of attachment. FITC = O=C1OC2(c3ccc(O)cc3Oc3cc(O)ccc32)c2ccc(NC(=S)*)cc21

T1 sequence (P01215 25-116, chain 1 of 2, other chains not shown): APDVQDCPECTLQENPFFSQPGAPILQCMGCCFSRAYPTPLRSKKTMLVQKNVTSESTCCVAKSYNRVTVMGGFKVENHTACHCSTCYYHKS

B1: FITC-labeled hCG-specific binding peptide aptamer FITC-PPLRINRHILTR (peptide)
peptide: {FITC}-PPLRINRHILTR
notes: In the assay the peptide was first adsorbed onto graphene oxide (GO); also called peptide probe; source: synthetic peptide; bought: Synpeptide Co., Ltd
Consider B1, for which the binding result is “binds”.

For the origin of these results see publication PMC5087487, “A Graphene Oxide-Based Fluorescent Method for the Detection of Human Chorionic Gonadotropin” (Sensors (Basel, Switzerland), 2016).
